# Legend:
# [1] = tested on: Protein VI (Human adenovirus 2); experiment: FP; settings: 20 mM Tris pH 8.0, 0.025% DDM, 1 mM MgCl2, 21 C
# [2] = molecular target: pVI (precursor to protein VI) (Human adenovirus 2) (UniProt P03274); experiment: FP; settings: 20 mM Tris pH 8.0, 0.025% DDM, 0.1 mM DTT, 1 mM MgCl2, 21 C; 4:1 stoichiometry
# Chain of pVI (precursor to protein VI) (Human adenovirus 2) (P03274 whole entry): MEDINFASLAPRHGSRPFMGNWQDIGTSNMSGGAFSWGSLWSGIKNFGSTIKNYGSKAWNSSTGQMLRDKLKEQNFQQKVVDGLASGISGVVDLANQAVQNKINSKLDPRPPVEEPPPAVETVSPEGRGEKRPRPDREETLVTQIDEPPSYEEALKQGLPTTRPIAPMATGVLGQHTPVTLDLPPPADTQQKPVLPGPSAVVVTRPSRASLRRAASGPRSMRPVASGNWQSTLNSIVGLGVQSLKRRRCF
substance,measurement,setting,value
33-mer dsDNA,Kd,[1],0.241 µM
same,Kd,[2],0.035 µM

# — patent publication US20150210738
